Source: patent US11697680B2, “Anti-GP73 antibodies and immunoconjugates” (CUREAB GMBH, priority 2016, dated 2023)
Where a SMILES comes first, the peptide text is derived from it. [ ]: non-standard residue; d: D form. Dolaproine = CO[C@@H]([C@@H]1CCCN1)[C@@H](C)C(=O)O; Dil = CC[C@H](C)[C@H](NC)[C@@H](CC(=O)O)OC; NMeV = CN[C@H](C(=O)O)C(C)C

Key:
HuH7 cells = test: Efficacy of G2-2-ADC in HuH7 cells (cell viability, PrestoBlue); type: cell-based, human; conditions: medium changed after one hour, viability after 98 hours, read-out: IC50 as determined by drug component
Protocol: FIG. 14 An antibody drug conjugate consisting of MMAF attached to a Malamide exchange linker linked to G2-2 was added to HuH7 cells.
An antibody drug conjugate consisting of MMAF attached by a malameide exchange linker to G2-2 was added to the cell culture medium of HUH7 cells in different concentrations. Medium was changed after one hour. Cell viability was analyzed after 98 hours using PrestoBlue reagent (ThermoFischer).

GP73 peptide: […] = biological target: T1, GP73 peptide: […] (Homo sapiens, UniProt Q8NBJ4); test: Biacore surface plasmon resonance, data fit for 1:1 binding; conditions: Biacore 1:1 binding fit; GP73 peptide SSRSVDLQTRIMELEGRVRR
T1 construct: GP73 peptide: […]
Protocol: In one embodiment, Kd is measured using surface plasmon resonance assays using a BIACORE®-2000 or a BIACORE®-3000 (BIAcore, Inc., Piscataway, N.J.) at 25° C. with immobilized antigen CM5 chips at […] response units (RU). Briefly, carboxymethylated dextran biosensor chips (CM5, BIACORE, Inc.) are activated with N-ethyl-N′-(3-dimethylaminopropyl) carbodiimide hydrochloride (EDC) and N-hydroxysuccinimide (NHS) according to the supplier's instructions. Antigen is diluted with 10 mM sodium acetate, pH 4.8, to 5 μg/ml (−0.2 μM) before injection at a flow rate of 5 μl/minute to achieve approximately 10 response units (RU) of coupled protein. Following the injection of antigen, 1 M ethanolamine is injected to block unreacted groups. For kinetics measurements, two-fold serial dilutions of antibody (0.58 nM to 200 nM) are injected in PBS with 0.05% polysorbate 20 (TWEEN-20™) surfactant (PEST) at 25° C. at a flow rate of approximately 25 μl/min. Association rates (kon) and dissociation rates (koff) are calculated using a simple one-to-one Langmuir binding model (BIACORE® T100 Evaluation Software) by simultaneously fitting the association and dissociation sensorgrams. The equilibrium dissociation constant (Kd) is calculated as the ratio koff/kon. See, e.g., Chen et al., J. Mol. Biol. 293:865-881 (1999). If the on-rate exceeds […] s^−1 by the surface plasmon resonance assay above, then the on-rate can be determined by using a fluorescent quenching technique that measures the increase or decrease in fluorescence emission intensity (excitation=295 nm; emission=340 nm, 16 nm band-pass) at 25° C. of a 20 nM anti-antigen antibody in PBS, pH 7.2, in the presence of increasing concentrations of antigen as measured in a spectrometer, such as a stop-flow equipped spectrophometer (Aviv Instruments) or a 8000-series SLM-AMINCO™ spectrophotometer (ThermoSpectronic) with a stirred cuvette.

peptide AA 36-55 of GP73 [1] = biological target: T2, peptide AA 36-55 of GP73 (Homo sapiens, UniProt Q8NBJ4); test: Competition peptide ELISA with HRP-labeled antibodies; type: binding; conditions: unlabeled competing antibody at high concentration; binding antibody G2-2-HRP
Protocol: A peptide ELISA was performed using horse radish peroxidase labeled G2-1 (G2-1-HRP) or G2-2 (G2-2-HRP) as binding antibodies and G2-1 or G2-2 as competing antibodies. […] Binding to peptide AA 36-55 of GP73 served as positive control (filled circle), negative control was binding to an unrelated peptide (filled diamond) as described in Example 5.
(§1) ELISA was carried out in 96 well plates coated overnight with biotinylated peptide and blocked with 2% gelatine. Horse radish peroxidase labeled antibodies G2-1 (G2-1-HRP) or G2-2 (G2-2-HRP) were applied and incubated for 1.5 hours. For competition testing non labeled G2-1 or G2-2 was added at high concentration. For pH dependent binding the antibodies were applied in phosphate buffer pH 4.4, 5.4, 6.4 or 7.4. After extensive washing a chromogenic substrate (TMB Amersham) was added to detect peroxidase. The reaction was stopped and absorbance was read at 450 nm.

peptide AA 36-55 of GP73 [2] = biological target: T2, peptide AA 36-55 of GP73; test: pH dependent peptide ELISA; type: binding; conditions: pH range of 7.4 to 5.4
Protocol: A peptide ELISA was performed to test for pH dependency of binding to peptide AA 36-55 of GP73.
as §1

[3] = biological target: T3, Furin cleavage of recombinant GP73-HIS (Homo sapiens, UniProt Q8NBJ4); test: Furin cleavage of GP73-HIS depending on antibody binding (capture ELISA); type: biochemical; conditions: 3 U and 1.5 U of Furin; 2 hours at 30° C.
T3 construct: purchased Biolegend
T3 sequence (Q8NBJ4 36-401 limits assumed): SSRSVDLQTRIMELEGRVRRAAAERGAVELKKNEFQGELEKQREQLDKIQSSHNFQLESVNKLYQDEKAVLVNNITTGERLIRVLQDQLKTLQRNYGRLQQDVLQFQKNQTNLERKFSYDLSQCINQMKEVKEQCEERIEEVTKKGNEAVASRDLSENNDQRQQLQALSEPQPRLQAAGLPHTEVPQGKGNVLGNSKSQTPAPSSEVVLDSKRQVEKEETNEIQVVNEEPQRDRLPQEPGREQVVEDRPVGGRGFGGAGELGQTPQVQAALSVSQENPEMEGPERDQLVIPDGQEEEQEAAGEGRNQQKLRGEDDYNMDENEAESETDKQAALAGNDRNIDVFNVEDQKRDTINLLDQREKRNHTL
Text: Measurements of Furin cleavage of GP73 using a range from 0 units to 3 units of Furin are depicted.
Testing of Furin cleavage exploits the fact that antibodies G2-1 and G2-2 bind GP73 N-terminal of or at the furin cleavage site 56R whereas recombinant GP73 with C-terminal HIS tag (GP73-HIS) is detected by anti HIS antibody at the C-terminus of GP73. Plate bound anti human IgG can capture G2-1 or G2-2, which binds GP73-HIS. If furin cleavage occurs in a setting where G2-1 or G2-2 have already bound to GP73-HIS, only N-terminal part of GP73 will reside at the G2 antibodies. In contrast, if furin cleavage is hindered by G2 antibodies, GP73-HIS can be detected by an anti HIS antibody.
Furin cleavage was carried out in 1.5 ml tubes. To test if G2 antibodies can hinder furin cleavage recombinant GOLPH-HIS protein (Biolegend) and G2-2 or G2-1 was incubated for 2 hours in 100 mM HEPES and 1 mM CaCl2 buffer pH 7.5 to allow antibody binding to GP73. […]
From each reaction 2×100 ul were transferred to wells of a 96 well plate that had been coated over night with anti human IgG and was blocked with 1% gelatine in PBS. After one hour incubation at room temperature the plate was washed, incubated with anti HIS-hrp antibody for one hour, washed again, incubated with a chromogenic substrate (TMB Amersham) to detect peroxidase, stopped and read at 450 nm.

sGP73 (GP73 AA56 to 401) = biological target: T4, sGP73 (GP73 AA56 to 401) (Homo sapiens, UniProt Q8NBJ4); test: Protein ELISA on sGP73-His; type: binding; conditions: plates coated with sGP73; absorbance 450 nm
T4 construct: contains sGP73-10×His, encompassing GP73 AA56 to 401 (sGP73); made in house; host or cells: 293HEK cells, isolated from the supernatant by IMAC
T4 sequence (Q8NBJ4 with tags, fused parts or gaps): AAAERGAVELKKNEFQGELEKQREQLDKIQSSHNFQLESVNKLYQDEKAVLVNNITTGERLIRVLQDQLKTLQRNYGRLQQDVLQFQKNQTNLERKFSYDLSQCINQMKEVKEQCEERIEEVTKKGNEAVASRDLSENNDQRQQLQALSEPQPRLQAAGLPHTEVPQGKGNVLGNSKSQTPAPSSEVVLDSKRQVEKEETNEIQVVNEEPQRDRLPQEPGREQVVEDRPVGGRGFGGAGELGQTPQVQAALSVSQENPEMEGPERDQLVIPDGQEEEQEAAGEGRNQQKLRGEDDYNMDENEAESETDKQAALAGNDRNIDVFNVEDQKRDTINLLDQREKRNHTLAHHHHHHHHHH
Protocol: (§2) 293HEK cells were either transfected with cDNA containing full length GP73 AA 1-401 C-terminal tagged with 10×HIS-Tag or with a GP73 ΔN variant containing AA 36 to 401 with a R52A mutation, resulting in a non-cleavable variant, C-terminal tagged with 10×HIS-Tag (GP73-His AVRR). In both constructs a secretion signal was added in frame to the N-terminus. The supernatant of the full length GP73 expressing cells contains sGP73-10×His, encompassing GP73 AA56 to 401 (sGP73; SEQ ID NO: 40), that has been proteolytically cleaved by furin or another protease at AA 55. The supernatant of the GP73 ΔN variant contains GP73-10×His AVRR, encompassing GP73 AA36 to 401 (GP73 AVRR; SEQ ID NO: 41) as shown in FIG. 20. Only the latter of the two constructs contains the rGP73 epitope. Both proteins were isolated by IMAC.
(§3) ELISA was carried out in 96 well plates coated overnight with sGP73 or GP73 AVRR and blocked with 2% gelatine. Antibodies 8A10, G2-2opti (IgG2a) or isotype control antibody were applied, incubated for 1.5 hours and washed away. A secondary Horse radish peroxidase labeled anti mouse antibody was added for 1 hour and after extensive washing a chromogenic substrate (TMB Amersham) was applied to detect peroxidase.

[4] = biological target: T5, GP73 AVRR (GP73 AA36 to 401, R52A) (Homo sapiens, UniProt Q8NBJ4, R52A); test: Protein ELISA on GP73-His AVRR; type: binding; conditions: plates coated with GP73 AVRR; absorbance 450 nm
T5 construct: contains GP73-10×His AVRR, encompassing GP73 AA36 to 401 (GP73 AVRR); made in house; host or cells: 293HEK cells, isolated from the supernatant by IMAC
T5 sequence (Q8NBJ4 with tags, fused parts or gaps R52A): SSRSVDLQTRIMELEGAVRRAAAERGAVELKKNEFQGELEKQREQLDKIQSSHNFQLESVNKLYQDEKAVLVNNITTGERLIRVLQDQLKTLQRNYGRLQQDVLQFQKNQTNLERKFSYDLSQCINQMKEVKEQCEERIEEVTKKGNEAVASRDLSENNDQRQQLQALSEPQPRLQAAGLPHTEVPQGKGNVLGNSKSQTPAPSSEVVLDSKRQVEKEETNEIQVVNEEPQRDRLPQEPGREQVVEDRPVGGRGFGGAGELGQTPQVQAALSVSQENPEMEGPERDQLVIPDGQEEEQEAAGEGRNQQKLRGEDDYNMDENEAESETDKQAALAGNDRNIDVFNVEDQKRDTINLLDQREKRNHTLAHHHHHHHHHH
Protocol: as §2, §3

Molecule `CC[C@H](C)[C@@H]([C@@H](CC(=O)N1CCC[C@H]1[C@H](OC)[C@@H](C)C(=O)N[C@@H](Cc1ccccc1)C(=O)O)OC)N(C)C(=O)[C@@H](NC(=O)[C@@H](NC)C(C)C)C(C)C` [MMAF, monomethylauristatin F] (H-[NMeV]V[Dil][Dolaproine]F-OH) has an IC50 (HuH7 cells) of 277 nM.

B1: G2-1: scFv clone with human IgG1 heavy and human Igk light constant regions; VH/VL SEQ ID NO: 10 and 11; binds rGP73 (antibody, V domains shown)
VH: EVQLLESGGGVVQPGRSLRLSCAASGFTFSSYAMSWVRQAPGKGLEWVSVISYDGSNKAYADSVKGRFTISRDNSKNTLYLQMNSLRAEDTAVYYCARGRSYYDSSGYLFDYWGQGTLVTVSS
VL: DIQMTQPHSVSESVGKTVIITCTGGGGSIDTNYVQWYQQRPGSAPVTLIYEDDQRPFGVPDRFSAAIDTSSSSASLTISGLTAEDEATYYCQSSHSTAVVFGGGTKVEIK
modifications: human IgG1 and Igk constant regions not cited; G2-1 heavy chain variable region (VH); G2-1 light chain variable region (VL)
In the case of B1, the “koff, measurement 1 + 2 mean” value (GP73 peptide: […]) is reported as 0.001981 s⁻¹, the “kon, measurement 1 + 2 mean” value (GP73 peptide: […]) is reported as 635200 M⁻¹ s⁻¹ and the “competition with G2-2-HRP for peptide binding” value (peptide AA 36-55 of GP73 [1]) is reported as “Competitive inhibition”. The “pH dependency of binding to peptide AA 36-55 of GP73” value (peptide AA 36-55 of GP73 [2]) was “Stable binding” and the “Furin cleavage of GP73 after preincubation with antibody” value [3] was “significant reduction in Furin cleavage”.

B2: G2-2opti (IgG2a): chimeric human/murine version of G2-2opti with murine constant domains (antibody, V domains shown)
VH: QVQLVQSGGGVVQPGRSLRLSCAASGFTFSSYGMHWVRQAPGKGLEWVAVISYDGSNKYYADSVKGRFTISRDNSKNTLYLQMNSLRAEDTAVYYCAREGSAGMDVWGQGTTVTVSS
VL: QAVLTQPSSLSASPGASASLTCTLRSDISVGFHRIYWYQQKPGSPPQYLLRYKSDSDKQQGSGVPSRFSGSKDASANAGILLISGLQSDDEADYYCVIWHTSGVVFGGGTKLTVL
B2 was tested, and the “binding to sGP73 (ELISA)” value (sGP73 (GP73 AA56 to 401)) was “not to sGP73” and the “binding to GP73 AVRR (ELISA)” value [4] was “binds to GP73 AVRR”.
